Measured values from the supplement of paper PMC9170038.

Tested on: MS2 coat protein
Experiment: apparent KD of MS2 coat protein; designed switch direction (-1 OFF switch, 1 ON switch): -1; higher = weaker reporter binding
Procedure, shortened: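 Designed RNA switches were transcribed on Illumina chips by stalled E. coli RNA polymerase and titrated with SNAP-549-labelled MS2 coat protein from 0.7 or 1.5 nM, doubling to 3 µM. Step length ran from 0.8–1.5 h at the lowest concentration to 10–20 min at the highest. The apparent KD is the median over clusters for each design, from curve-fitted normalised cluster fluorescence.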

[1] = input ligand: microRNA oligo, concentration not stated
[2] = Eterna round: R95, input ligand: microRNA oligo, concentration not stated
[3] = Eterna round: R95, input ligand: FMN 200 uM
[4] = Eterna round: R95, input ligand: none

Sequence	apparent KD of MS2 coat protein (input ligand: FMN 200 uM) [nM]	apparent KD of MS2 coat protein (input ligand: none) [nM]	apparent KD of MS2 coat protein [1] [nM]	apparent KD of MS2 coat protein [2] [nM]	apparent KD of MS2 coat protein [3] [nM]	apparent KD of MS2 coat protein [4] [nM]
AGUAAGCUAGGAUAUGCUUUGGGAAAGCAUUCCUUCGAUAAACUUGAGGAUCACCCAAGUAGAAGGAGCUUACA [salish99_ex2_r4_004] (Eterna round: R97, puzzle: Exclusion 2)	20.2	13.8				
UUAUUAAUUAAGACUGCAAGAUCACAUGAGGAUCACCCAUGUCAGGAUAUCAGCUCGUUUAGAGCUGAGAAGGGACAAGCAGUC [ExNG3/15-A2] (Eterna round: R96, puzzle: Exclusion NG 3)	337	94.4	98			
UAGCAGAGAGGAUAUACAUUCAUCACCCGCGCAACAAGCGCACAUGAGGAUCACCCAUGUAGAAGGCUCGUGCC [EX2 C.20] (Eterna round: R97, puzzle: Exclusion 2)	53.6	31.7				
UAAUGGACAGGAUAUACAUGAGGAUCACCCAUGUCGGCCGGUCCUGUUCUAAGAGCGAGUAGAAGGGUCACGUU [Eternabot (L1) Solution 4] (Eterna round: R97, puzzle: Exclusion 3)	11.6	11.9				
UAUUGUUUUUUUUUAAAUUACAUGAGGAUCACCCAUGUUUUUUUUUUUUUGGUGAUUAUUUUUUGUCUUUUUUUUUU [Jieuxbot 037 - Jieux - Sensor v2, turn-off variant] (Eterna round: R96, puzzle: Sensor v2, turn-off variant)	58.5	43.3	69			
GUUAAGGUAGGAUAUACGAUAAUAUAGGGUAGAUAUAGAACACAUGAGGAUCACCCAUGUAGAAGGACCAAUUG [Mat - Exclusion 2 - Mod of my Tesla design - D54] (puzzle: Exclusion 2)				28.6		
GGAGGAAGAGAGGAUAUGCGCGCAAGGAGCUUAGCAGAAGGUUCAACAUGAGGAUCACCCAUGUAUGAUCCUCA [AK-MS2ROC-r4-exclusion6-5] (Eterna round: R97, puzzle: Exclusion 6)	341	318				
GCAGCAUAGUCGGAAACGACAGAACAUGAGGAUCACCCAUGUCAGGAUAUGGUCUGGAUUACAGGCCAGAAGGGACAAAGCUGC [Eli exng3 - 008] (Eterna round: R96, puzzle: Exclusion NG 3)	19.6	19.8	14.1			
GCUUGCGAAGUAAGGAUAUCGGUCCGAAAGGACUACGAGAAGGUACAUGAGGAUCACCCAUGUGCGAGCAGAAU [Mod of Zala 24 - Jieux - Brourd's mod of Exclusion 4] (Eterna round: R97, puzzle: Brourd's mod of Exclusion 4)	19.6	23				
UUAUAUAAUGUGAGGAUAUGCUGGUCGAUAGAUCAGCAGAAGGCACAUGAGGAUCACCCAUGUAGUAAAUUUUA [Mat - Exclusion 4 - JL Mod - D13] (puzzle: Brourd's mod of Exclusion 4)				16.4	25.5	16.2
GCCAGAGCAGGAUAUCUAAUAUCUCACAUGAGGAUCACCCAUGUCUAGCGAAAGCUAGAGGGAGAAGGGCUCUGGC [Mat - Exclusion 5 - Eli mod - D93] (puzzle: Exclusion 5)				29.4	28.1	41.6
UAAAGUAUAUAGGAUAUCUAGCUGGAAACAGCUAGAGAAGGAUGUACAUGAGGAUCACCCAUGUAAAUCGUGAA [Ex6/13-A1] (Eterna round: R97, puzzle: Exclusion 6)	16.2	13				
GGCACACAUGAGGAUCACCCAUGUGAGGAUAUGUUAGUUUCGGCCAAAGCCGAAAUUAACAGAAGGCACAUGCC [JR_Exclusion1_Sub021] (puzzle: Exclusion 1)				13.3		
